Source: publication PMC5015959, “The Binding of Plasmodium falciparum Adhesins and Erythrocyte Invasion Proteins to Aldolase Is Enhanced by Phosphorylation” (PLoS ONE, 2016)
Where a SMILES comes first, the peptide text is derived from it. Where no end group is shown, it is not given here. [ ]: non-standard residue; d: D form. The star is where a group is joined. Biotin = O=C1N[C@H]2[C@H](CS[C@H]2CCCCC(=O)*)N1; pT = C[C@@H](OP(=O)(O)O)[C@H](N)C(=O)O; pS = N[C@@H](COP(=O)(O)O)C(=O)O

T1: P. falciparum aldolase (P. falciparum, UniProt Q7KQL9 1-369)
T1 construct: also called fructose 1,6-bisphosphate aldolase; parasite aldolase; source: prepared as described previously [42]
T1 sequence (looked up): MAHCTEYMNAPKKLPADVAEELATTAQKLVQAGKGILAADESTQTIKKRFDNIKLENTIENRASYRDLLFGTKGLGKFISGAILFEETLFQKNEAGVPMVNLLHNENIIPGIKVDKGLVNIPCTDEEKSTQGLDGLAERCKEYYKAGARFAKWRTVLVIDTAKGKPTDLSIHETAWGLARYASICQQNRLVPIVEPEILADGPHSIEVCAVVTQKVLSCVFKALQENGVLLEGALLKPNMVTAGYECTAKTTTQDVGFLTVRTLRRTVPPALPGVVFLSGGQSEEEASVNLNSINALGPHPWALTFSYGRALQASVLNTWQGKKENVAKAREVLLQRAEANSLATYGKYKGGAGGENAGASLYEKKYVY

B1: RH4 CTD (1650–1716) (peptide)
peptide: Biotin-KNSNEPHHIFNIFQKEFSEADNAHSEEKEEYLPVYFDEVEDEVEDEVEDEDENENEVENENEDFNDI
notes: also called RH4 unmodified; source: synthetic peptide; bought: Biomatik, USA
B2: EBA140 CTD, phosphorylated (peptide)
peptide: Biotin-RMGKSNEEYDIGESNIEATFEENNYLNKLSRIFNQEVQETNISDYSEYNYNEKNMY
modifications: also: phosphorylated, exact sites not determined
notes: also called EBA140 phosphorylated; source: phosphorylated synthetic peptide (Biomatik) or peptide phosphorylated in vitro
B3: AMA1 CTD phosphorylated at Ser-610 (peptide)
peptide: Biotin-YKRKGNAEKYDKMDEPQDYGKSNSRNDEMLDPEASFWGEEKRASHTTPVLMEKPYY
modifications: not fully specified (residue 44)
notes: source: phosphorylated synthetic peptide (Biomatik) or peptide phosphorylated in vitro
B4: MTRAP CTD phosphorylated at Thr-459 (peptide)
peptide: Biotin-YFLRKEK[pT]EKVVQEETKEENFEVMFNDDALKGKDNKAMDEEEFWALE
notes: as for B3
B5: MTRAP CTD short C-terminal peptide (printed residues 479–498) (peptide)
peptide: Biotin-ALKGKDNKAMDEEEFWALE
notes: source: synthetic peptide; bought: Biomatik, USA
B6: RH2B CTD (3211–3254) (peptide)
peptide: Biotin-DRSNKDECDFDMCEEVNNNDHLSNYADKEEIIEIVFDENEEKYF
modifications: cysteine pairing not given here
notes: also called RH2B unmodified; source: synthetic peptide; bought: Biomatik, USA
B7: EBA181 CTD (1511–1567) (peptide)
peptide: Biotin-RKNLDDEKGFYDSNLNDSAFEYNNNKYNKLPYMFDQQINVVNSDLYSEGIYDDTTTF
notes: also called EBA181 unmodified; source: synthetic peptide; bought: Biomatik, USA
B8: RH2B CTD phosphorylated at S3233 (peptide)
peptide: Biotin-DRSNKDECDFDMCEEVNNNDHL[pS]NYADKEEIIEIVFDENEEKYF
modifications: cysteine pairing not given here
notes: as for B3
B9: EBA181 CTD phosphorylated at S1523 and S1528 (peptide)
peptide: Biotin-RKNLDDEKGFYD[pS]NLND[pS]AFEYNNNKYNKLPYMFDQQINVVNSDLYSEGIYDDTTTF
notes: as for B3
B10: AMA1 full length CTD (567–622) (peptide)
peptide: Biotin-YKRKGNAEKYDKMDEPQDYGKSNSRNDEMLDPEASFWGEEKRASHTTPVLMEKPYY
notes: as for B5
B11: EBA140 CTD (1155–1210) (peptide)
peptide: Biotin-RMGKSNEEYDIGESNIEATFEENNYLNKLSRIFNQEVQETNISDYSEYNYNEKNMY
notes: also called EBA140 unmodified; source: synthetic peptide; bought: Biomatik, USA
B12: EBA175 CTD phosphorylated at T1483 and S1489 (peptide)
peptide: Biotin-KYQSSEGVMNENNENNFLFEVTDNLDKLSNMFNQQVQE[pT]NINDF[pS]EYHEDINDINFKK
notes: as for B3
B13: MTRAP full length CTD (452–498), synthetic biotinylated peptide (peptide)
peptide: Biotin-YFLRKEKTEKVVQEETKEENFEVMFNDDALKGKDNKAMDEEEFWALE
notes: as for B5
B14: MTRAP CTD phosphorylated at Thr-467 (peptide)
peptide: Biotin-YFLRKEKTEKVVQEE[pT]KEENFEVMFNDDALKGKDNKAMDEEEFWALE
notes: as for B3
B15: TRAP full length CTD (530–574) (peptide)
peptide: Biotin-YKFVVPGAATPYAGEPAPFDETLGEEDKDLDEPEQFRLPEENEWN
notes: as for B5
B16: RH4 CTD phosphorylated at S1667 or S1674 (peptide)
peptide: Biotin-KNSNEPHHIFNIFQKEFSEADNAHSEEKEEYLPVYFDEVEDEVEDEVEDEDENENEVENENEDFNDI
modifications: also: one phosphate at either Ser1667 (pos 18) or Ser1674 (pos 25)
notes: as for B3
B17: EBA175 CTD (1445–1502) (peptide)
peptide: Biotin-KYQSSEGVMNENNENNFLFEVTDNLDKLSNMFNQQVQETNINDFSEYHEDINDINFKK
notes: also called EBA175 unmodified; source: synthetic peptide; bought: Biomatik, USA
B18: MTRAP CTD phosphorylated at Thr-459 and Thr-467 (peptide)
peptide: Biotin-YFLRKEK[pT]EKVVQEE[pT]KEENFEVMFNDDALKGKDNKAMDEEEFWALE
notes: as for B3

Columns and labels:
[1] = target: T2, P. falciparum aldolase (Plasmodium falciparum, UniProt Q7KQL9); assay: biochemical; assay type: binding; conditions: for binding to aldolase (in words): biolayer interferometry, Octet Red; for Kd: same assay as the Kd column, symbol * = no binding
T2 construct: made in house
Text: CTDs of four classes of type 1 membrane protein (AMA1 and the TRAP, EBL and RH families) that are potential adhesins or host cell invasion proteins derived from apical organelles, and present in the merozoite plasma membrane during invasion, were examined for their ability to bind to aldolase using bio-layer interferometry. Streptavidin-coated biosensors were loaded with biotinylated synthetic peptides or recombinant proteins representing either the full length CTDs or shorter C-terminal sequences (Table 1) and titrated with increasing aldolase concentrations. This analysis enabled the calculation of a dissociation constant (Kd) for each pair of proteins as a measure of the strength of interaction between them.
The effect of the CTD phosphorylation on aldolase binding was investigated using biolayer interferometry using phosphorylated synthetic peptides or peptides phosphorylated in vitro (Table 3).
Protein interactions were analysed by biolayer interferometry using the Octet Red system (ForteBio) at 25°C in 96-well microplates, as described previously. All assays were performed in 100 mM Tris-HCl pH 8.0, according to the manufacturer’s instructions. A baseline was established over 1 min, and biotinylated samples were loaded onto streptavidin sensors for 1 min. The sensors were washed for 1 min and then incubated with aldolase at different concentrations (0.05–250 μM) for 1 min, followed by a dissociation phase over 5 min. The experiments were performed in duplicate or triplicate depending on the experiment. The data were analysed as described previously.

[2] = target: RH1 full length CTD (2921–2971) (P. falciparum); assay: BLI
[3] = target: RH1 CTD phosphorylated at S2950 or T2951 (P. falciparum); assay: BLI
[4] = target: T1, P. falciparum aldolase; assay: BLI; conditions: both partners purified
[5] = target: T1, P. falciparum aldolase; assay: BLI; conditions: both partners purified; remark: listed apart in the source
[6] = target: T1, P. falciparum aldolase; assay: BLI; competition: biotinylated AMA1 or RH4 CTD on streptavidin sensor, fixed aldolase (70 μM for AMA1, 20 μM for RH4) with increasing unlabelled MTRAP CTD peptide; Octet Red; duplicate; conditions: both partners purified

Molecule	Kd [4]	Kd [5]	further results
CSCC[C@H](NC(=O)[C@H](CC(C)C)NC(=O)[C@@H](NC(=O)CCCC[C@@H]1SC[C@@H]2NC(=O)N[C@@H]21)C(C)C)C(=O)N[C@@H](CCC(=O)O)C(=O)N[C@@H](CCCCN)C(=O)N1CCC[C@H]1C(=O)N[C@@H](Cc1ccc(O)cc1)C(=O)N[C@@H](Cc1ccc(O)cc1)C(=O)O [AMA1 555–562] (Biotin-VLMEKPYY-OH; C-terminus assumed)			binding to aldolase (in words) [1]: did not bind; Kd [1]: > 250 µM
Biotin-KTNSGDNNSNEINEAFEPNDDVLFKEKDEIIEITFNDNDSTI [RH2A]			binding to aldolase (in words) [1]: did not bind at all; Kd [1]: > 250 µM
Biotin-DRSNKDECDFDMCEEVNNNDHLSNYADKEEIIEIVFDENEEKYF (cysteines drawn unpaired) [RH2B]			increase in affinity for aldolase following phosphorylation ([1]; phosphorylated versus unmodified CTD, from Kd values of Table 3): 11 fold
P. falciparum aldolase (from UniProt Q7KQL9 1-369) (enzyme)			Kd [2]: 6.1 µM; Kd [3]: 2.5 µM
CC[C@H](C)[C@H](NC(=O)[C@H](Cc1c[nH]cn1)NC(=O)[C@H](Cc1ccc(O)cc1)NC(=O)CCCC[C@@H]1SC[C@@H]2NC(=O)N[C@@H]21)C(=O)N[C@@H](Cc1ccccc1)C(=O)N[C@@H](Cc1ccc(O)cc1)C(=O)N[C@@H](CCCCN)C(=O)N[C@@H](CCCNC(=N)N)C(=O)N[C@@H](CCCCN)C(=O)NCC(=O)N[C@@H](C)C(=O)N[C@@H](CCC(=O)O)C(=O)N[C@@H](CCCCN)C(=O)N[C@@H](CCC(=O)O)C(=O)N[C@@H](CC(C)C)C(=O)N[C@@H](Cc1ccc(O)cc1)C(=O)N[C@@H](CCC(=O)O)C(=O)N[C@@H](CC(N)=O)C(=O)N[C@H](C(=O)N[C@@H](C)C(=O)NCC(=O)N[C@@H](CCCNC(=N)N)C(=O)N[C@@H](Cc1ccc(O)cc1)C(=O)N[C@@H](CCSC)C(=O)N[C@@H](Cc1ccc(O)cc1)C(=O)N[C@@H](CC(=O)O)C(=O)O)C(C)C [PTRAMP, reference compound] (Biotin-YHIFYKRKGAEKELYENVAGRYMYD-OH; C-terminus assumed)			binding to aldolase (in words) [1]: does not bind
B1	3.5 µM		
B2		35 µM	
B3		44 µM	
B4		3.5 µM	
YFLRKEKTEKVVQEETKEENFEVMFNDDALKGKDNKAMDEEEFWALE [unlabelled competitor MTRAP CTD peptide]			percent reduction of aldolase binding to RH4 CTD at a 5-fold molar excess of MTRAP to aldolase [6]: 56%
B5	17 µM		
B6	125 µM		
B7	130 µM		
B8		11 µM	
B9		4.7 µM	
B10	53 µM		
B11	83 µM		
B12		38 µM	
B13	13.8 µM		
B14		1.9 µM	
B15	5 µM		
B16		2.5 µM	
B17	96 µM		
B18		0.9 µM	
